Read-outs that look alike come from different tables or passages of the source.
What was measured:
[1] = biological target: T1, hPD-L1-His (human, UniProt Q9NZQ7 19-239); experiment: ELISA, PD-L1-his coated on plate
T1 construct: Bought; also called Human PD-L1-his; Human PD-L1; not shown: His tag

[2] = biological target: T2, Cyno PD-L1-His (cyno, UniProt G7PSE7 19-239); experiment: ELISA, PD-L1-his coated on plate
T2 construct: Bought; not shown: His tag

[3] = biological target: T3, PD-L1-Fc (prepared in-house) (human, UniProt Q9NZQ7 19-238, limits assumed); experiment: blocking ELISA, PD-L1-Fc coated, competitor biotin-labeled B7-1
T3 construct: Prepared in-house; also called human PD-L1-Fc; not shown: Fc

[4] = biological target: T3, PD-L1-Fc (prepared in-house); experiment: blocking ELISA, PD-L1-Fc coated, competitor biotin-labeled PD-1
[5] = biological target: T1, hPD-L1-His; experiment: SPR (Biacore T200), binder captured on Protein A chip, antigen in flow
[6] = biological target: T2, Cyno PD-L1-His; experiment: as above
[7] = biological target: T4, mPD-L1 (mouse, UniProt Q9EP73 19-238); experiment: as above
T4 construct: Bought; also called Mouse PD-L1-his; Mouse PD-L1

[8] = biological target: T5, natural CD47 on the surface of human red blood cells (human, UniProt Q08722 19-323); experiment: flow cytometry on human red blood cells, 10 µg/ml, Alexa 488 goat anti-human IgG secondary antibody, geometric mean
T5 construct: whole, on cells; also called CD47 on the surface of red blood cells

[9] = biological target: T6, Human CD47-his (CD47-ECD-His) (human, UniProt Q08722 19-139, limits assumed); experiment: ELISA, CD47-his coated on plate
T6 construct: also called hCD47; free human CD47 protein

[10] = biological target: T7, Cyno CD47-his (cyno, UniProt A0A2K5X523 19-139); experiment: ELISA, CD47-his coated on plate
T7 construct: extracellular domain; not shown: His tag

[11] = biological target: T6, Human CD47-his (CD47-ECD-His); experiment: SPR (Biacore T200), binder captured on Protein A chip, antigen in flow
[12] = biological target: T7, Cyno CD47-his; experiment: as above
[13] = biological target: T6, Human CD47-his (CD47-ECD-His); experiment: ELISA, CD47-his coated on plate; remark: listed apart in the source
[14] = biological target: T7, Cyno CD47-his; experiment: ELISA, CD47-his coated on plate; remark: listed apart in the source
[15] = biological target: T8, CD47 extracellular domain and human IgG1Fc fusion protein (CD47-ECD-Fc) (human); experiment: blocking ELISA, CD47-Fc coated, competitor biotin-labeled SIRPα-his
T8 construct: also called CD47-Fc

[16] = biological target: T4, mPD-L1; experiment: ELISA, PD-L1-his coated on plate

EC50 [1]	EC50 [2]	IC50 [3]	IC50 [4]	Kd [5]	Kd [6]	binding result [7]	binding result [8]	EC50 [9]	EC50 [10]	Kd [11]	Kd [12]	EC50 [13]	EC50 [14]	IC50 [15]	EC50 [16]	Kd [7]	Binder
0.129 µg/mL	0.222 µg/mL	0.0494 µg/mL	0.0266 µg/mL	80.6 pM	91.9 pM	no binding	no binding (tested: 10 µg/ml)										PD-L1 antibody h1831 (antibody, human IgG4 S228P, kappa, V domains shown) VH: QVQLVQSGAEVKKPGASVKVSCKASGYTFTSYWMHWVRQAPGQGLEWMGRITPSSGFAMYNEKFKNRVTMTRDTSTSTVYMELSSLRSEDTAVYYCARGGSSYDYFDYWGQGTTVTVSS VL: DIVLTQSPASLAVSPGQRATITCRASESVSIHGTHLMHWYQQKPGQPPKLLIYAASNLESGVPARFSGSGSGTDFTLTINPVEAEDTANYYCQQSFEDPLTFGQGTKLEIKR
0.046 µg/mL	0.0972 µg/mL			56.3 pM	49.3 pM	no binding				1250 pM	1480 pM	0.0609 µg/mL	0.033 µg/mL	0.252 µg/mL			h1831K-19-S37 (bispecific antibody, human IgG4 S228P, kappa, h1831K IgG4 (h1831 with light chain N53K) with SIRPγ variant S37, GS19 linker; also called h831K-19-S37; PD-L1-CD47 bifunctional fusion protein) heavy: not shown light: DIVLTQSPASLAVSPGQRATITCRASESVSIHGTHLMHWYQQKPGQPPKLLIYAASKLESGVPARFSGSGSGTDFTLTINPVEAEDTANYYCQQSFEDPLTFGQGTKLEIKRTVAAPSVFIFPPSDEQLKSGTASVVCLLNNFYPREAKVQWKVDNALQSGNSQESVTEQDSKDSTYSLSSTLTLSKADYEKHKVYACEVTHQGLSSPVTKSFNRGEC
0.0976 µg/mL	0.214 µg/mL	0.113 µg/mL	0.0723 µg/mL	87.4 pM	121 pM	no binding				3830 pM	4630 pM						h1831-19-S79 (bispecific antibody, human IgG4 S228P, kappa, h1831 IgG4 with SIRPγ variant S79, GS19 linker; also called PD-L1-CD47 bifunctional fusion protein) heavy: not shown light: DIVLTQSPASLAVSPGQRATITCRASESVSIHGTHLMHWYQQKPGQPPKLLIYAASNLESGVPARFSGSGSGTDFTLTINPVEAEDTANYYCQQSFEDPLTFGQGTKLEIKRTVAAPSVFIFPPSDEQLKSGTASVVCLLNNFYPREAKVQWKVDNALQSGNSQESVTEQDSKDSTYSLSSTLTLSKADYEKHKVYACEVTHQGLSSPVTKSFNRGEC
				52.9 pM	47.1 pM	no binding				1160 pM	1390 pM						h1831-19-S37 (bispecific antibody, human IgG4 S228P, kappa, h1831 IgG4 with SIRPγ variant S37, GS19 linker; also called PD-L1-CD47 bifunctional fusion protein) heavy: not shown light: DIVLTQSPASLAVSPGQRATITCRASESVSIHGTHLMHWYQQKPGQPPKLLIYAASNLESGVPARFSGSGSGTDFTLTINPVEAEDTANYYCQQSFEDPLTFGQGTKLEIKRTVAAPSVFIFPPSDEQLKSGTASVVCLLNNFYPREAKVQWKVDNALQSGNSQESVTEQDSKDSTYSLSSTLTLSKADYEKHKVYACEVTHQGLSSPVTKSFNRGEC

The remaining lines, values behind:

Binder	EC50 [1]	EC50 [2]	IC50 [3]	IC50 [4]	Kd [5]	Kd [6]	binding result [7]	binding result [8]	EC50 [9]	EC50 [10]	Kd [11]	Kd [12]	EC50 [13]	EC50 [14]	IC50 [15]	EC50 [16]	Kd [7]
HRP00052 (antibody, V domains shown) VH: QVQLVQSGAEVKKPGASVKVSCKASGYTFTSYWMHWVRQAPGQGLEWMGRIGPNSGFTSYNEKFKNRVTMTRDTSTSTVYMELSSLRSEDTAVYYCARGGSSYDYFDYWGQGTTVTVSS VL: DIVLTQSPASLAVSPGQRATITCRASESVSIHGTHLMHWYQQKPGQPPKLLIYAASNLESGVPARFSGSGSGTDFTLTINPVEAEDTANYYCQQSFEDPLTFGQGTKLEIKR	0.163 µg/mL	0.196 µg/mL	0.0307 µg/mL	0.032 µg/mL	144 pM	151 pM											
h1831-19-S58 (bispecific antibody, human IgG4 S228P, kappa, Anti-PD-L1 IgG4 antibody h1831 with SIRPγ variant S58, GS19 linker; also called PD-L1-CD47 bifunctional fusion protein) heavy: not shown light: DIVLTQSPASLAVSPGQRATITCRASESVSIHGTHLMHWYQQKPGQPPKLLIYAASNLESGVPARFSGSGSGTDFTLTINPVEAEDTANYYCQQSFEDPLTFGQGTKLEIKRTVAAPSVFIFPPSDEQLKSGTASVVCLLNNFYPREAKVQWKVDNALQSGNSQESVTEQDSKDSTYSLSSTLTLSKADYEKHKVYACEVTHQGLSSPVTKSFNRGEC	0.0947 µg/mL	0.237 µg/mL	0.16 µg/mL	0.122 µg/mL	82.5 pM	89.1 pM	no binding		0.0469 µg/mL	0.06 µg/mL	1770 pM	1940 pM					
Anti PD-L1 IgG4 antibody h1830 (antibody, V domains shown, also called PD-L1 monoclonal antibody h1830) VH: QVQLQESGPGLVKPSQTLSLTCTVSGGSISDGSAYWSWIRQHPGKGLEYIGFISRAGSTYNTPSLKGRVTISRDTSKNQFSLKLSSVTAADTAVYYCARSGGWLAPFDYWGRGTLVTVSS VL: DIVMTQSPDSLAVSLGERATINCKSSQSLFYHSNQKHSLAWYQQKPGQPPKLLIYGASTRESGVPDRFSGSGSGTDFTLTISSLQAEDVAVYYCQQYYGYPYTFGGGTKVEIKR	0.131 µg/mL	0.23 µg/mL	0.0752 µg/mL	0.035 µg/mL	466 pM	498 pM		no binding (tested: 10 µg/ml)								0.0289 µg/mL	97500 pM
Anti-CD47 antibody hu5F9 (antibody, human IgG4 S228P, kappa, V domains shown, Control antibody) VH: QVQLVQSGAEVKKPGASVKVSCKASGYTFTNYNMHWVRQAPGQRLEWMGTIYPGNDDTSYNQKFKDRVTITADTSASTAYMELSSLRSEDTAVYYCARGGYRAMDYWGQGTLVTVSS VL: DIVMTQSPLSLPVTPGEPASISCRSSQSIVYSNGNTYLGWYLQKPGQSPQLLIYKVSNRFSGVPDRFSGSGSGTDFTLKISRVEAEDVGVYYCFQGSHVPYTFGQGTKLEIKR															0.263 µg/mL		
Anti-CD47 antibody Hu167-IgG4 AA (antibody, V domains shown, Control antibody, prepared according to WO2018095428A1; also called Hul67 IgG4AA) VH: QVQLVQSGAEVKKPGASVKVSCKASGYTFTSYWMHWVRQAPGQGLEWMGNIDPSDSETHYNQKFKDRVTMTRDTSISTAYMELSRLRSDDTAVYYCARWGYLGRSAMDYWGQGTTVTVSS VL: DVQITQSPSSLSASVGDRVTITCRTSKSISKFLAWYQQKPGKAPKLLIYSGSTLQSGVPSRFSGSGSGTDFTLTISSLQPEDFATYYCQQHNEYPWTFGGGTKVEIKR									0.0703 µg/mL	0.0317 µg/mL	653 pM	1090 pM					
